Tests used:
murine Aβ1-42 peptide = target: T1, murine Aβ1-42 peptide (murine, UniProt P12023 672-713); test: Aβ ELISA
T1 construct: domain: Aβ1-42
T1 peptide (looked up): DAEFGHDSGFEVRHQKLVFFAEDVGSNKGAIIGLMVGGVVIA

[1] = target: T2, human FcγRIIIa-V158, extracellular domain with C-terminal Gly/6xHis/GST tag (human, UniProt P08637 17-208); test: ELISA, cross-linked antibody on anti-GST-captured FcγRIIIa-V158
T2 construct: extracellular domain; Made by Genentech; captured on the plate through an anti-GST antibody; V158 is the allotype as printed; not shown: Gly/6xHis/glutathione S transferase (GST) polypeptide tag at the C terminus
T2 sequence (P08637 17-208 F176V): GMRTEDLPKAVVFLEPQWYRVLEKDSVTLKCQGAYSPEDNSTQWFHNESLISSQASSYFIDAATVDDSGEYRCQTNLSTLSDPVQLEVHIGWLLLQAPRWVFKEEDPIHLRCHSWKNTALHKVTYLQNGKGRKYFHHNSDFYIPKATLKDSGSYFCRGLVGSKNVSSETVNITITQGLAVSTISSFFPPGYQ

binding result (murine Aβ1-42 peptide): binds
binding result [1]: binds
B1: MABT humanized anti-Aβ IgG4 monoclonal antibody (antibody)
heavy: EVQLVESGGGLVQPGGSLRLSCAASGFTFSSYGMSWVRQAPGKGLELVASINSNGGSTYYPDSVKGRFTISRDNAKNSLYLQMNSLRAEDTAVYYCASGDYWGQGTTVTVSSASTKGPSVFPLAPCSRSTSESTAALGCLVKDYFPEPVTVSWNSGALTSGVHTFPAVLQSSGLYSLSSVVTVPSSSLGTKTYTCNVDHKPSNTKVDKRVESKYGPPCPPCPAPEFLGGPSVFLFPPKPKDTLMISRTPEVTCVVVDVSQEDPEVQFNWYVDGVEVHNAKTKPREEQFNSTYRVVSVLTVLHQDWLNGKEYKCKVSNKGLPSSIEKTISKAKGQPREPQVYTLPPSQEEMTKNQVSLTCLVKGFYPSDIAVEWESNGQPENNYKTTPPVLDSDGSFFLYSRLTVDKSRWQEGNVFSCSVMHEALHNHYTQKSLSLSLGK
light: DIVMTQSPLSLPVTPGEPASISCRSSQSLVYSNGDTYLHWYLQKPGQSPQLLIYKVSNRFSGVPDRFSGSGSGTDFTLKISRVEAEDVGVYYCSQSTHVPWTFGQGTKVEIKRTVAAPSVFIFPPSDEQLKSGTASVVCLLNNFYPREAKVQWKVDNALQSGNSQESVTEQDSKDSTYSLSSTLTLSKADYEKHKVYACEVTHQGLSSPVTKSFNRGEC
notes: also called anti-Aβ MABT; MABT IgG4

— patent US20120064065A1 (AC IMMUNE S A, published 2012)
